Reference: article PMC7643343, “The intrinsically disordered region of GCE protein adopts a more fixed structure by interacting with the LBD of the nuclear receptor FTZ-F1” (Cell Communication and Signaling : CCS, 2020)

Target: T1, ligand binding domain of the nuclear receptor Fushi Tarazu factor-1 (LBD FTZ-F1) (Drosophila, UniProt P33244 786-1027, 15N-labelled in the experiment with the peptide; unlabelled in the experiment with GCEC)
T1 construct: cDNA synthesised (Gene Art); Cloned into pET-15b; residues left by the thrombin site are not described; Purified protein runs as a 26.5 kDa globular protein; also called FTZ-F1 LBD; LDB FTZ-F1 (786-1027); source: E. coli BL21(DE3), soluble fraction, purified (Ni-NTA, thrombin, second IMAC, SEC on Superdex75)
T1 sequence (looked up): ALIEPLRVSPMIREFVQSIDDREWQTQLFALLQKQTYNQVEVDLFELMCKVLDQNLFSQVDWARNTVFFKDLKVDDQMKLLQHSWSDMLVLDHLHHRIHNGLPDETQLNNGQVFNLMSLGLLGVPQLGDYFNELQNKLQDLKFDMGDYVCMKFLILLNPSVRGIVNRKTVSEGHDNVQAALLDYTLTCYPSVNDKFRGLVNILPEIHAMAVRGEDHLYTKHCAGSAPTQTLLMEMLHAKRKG
Test: NMR titration; 1H-15N HSQC chemical shift perturbation, 15N-labelled LBD FTZ-F1 after incubation with the … peptide (concentration set by its solubility limit), buffer F with 10% D2O, 22 °C, 800 MHz
Conditions: both partners purified

B1: 9-residue GCEC peptide (GCE^PEP) (peptide)
peptide: LRLIQNLQK
notes: stretch of the C-terminal region of GCE, D. melanogaster, with the novel NR-box (LIXXL motif; LIQNL); source: synthetic peptide (PSL GmbH, Heidelberg)
B1: binds.
